The text below walks through data of patent publication US20060127407A1.

For this experiment, the target named is alphaVbeta3 integrin (human) (UniProt P06756). As to the kind of experiment: ELISA, purified antibody on alphaVbeta3.
Sequence of alphaVbeta3 integrin (human) (P06756 31-1048, chain 1 of 2): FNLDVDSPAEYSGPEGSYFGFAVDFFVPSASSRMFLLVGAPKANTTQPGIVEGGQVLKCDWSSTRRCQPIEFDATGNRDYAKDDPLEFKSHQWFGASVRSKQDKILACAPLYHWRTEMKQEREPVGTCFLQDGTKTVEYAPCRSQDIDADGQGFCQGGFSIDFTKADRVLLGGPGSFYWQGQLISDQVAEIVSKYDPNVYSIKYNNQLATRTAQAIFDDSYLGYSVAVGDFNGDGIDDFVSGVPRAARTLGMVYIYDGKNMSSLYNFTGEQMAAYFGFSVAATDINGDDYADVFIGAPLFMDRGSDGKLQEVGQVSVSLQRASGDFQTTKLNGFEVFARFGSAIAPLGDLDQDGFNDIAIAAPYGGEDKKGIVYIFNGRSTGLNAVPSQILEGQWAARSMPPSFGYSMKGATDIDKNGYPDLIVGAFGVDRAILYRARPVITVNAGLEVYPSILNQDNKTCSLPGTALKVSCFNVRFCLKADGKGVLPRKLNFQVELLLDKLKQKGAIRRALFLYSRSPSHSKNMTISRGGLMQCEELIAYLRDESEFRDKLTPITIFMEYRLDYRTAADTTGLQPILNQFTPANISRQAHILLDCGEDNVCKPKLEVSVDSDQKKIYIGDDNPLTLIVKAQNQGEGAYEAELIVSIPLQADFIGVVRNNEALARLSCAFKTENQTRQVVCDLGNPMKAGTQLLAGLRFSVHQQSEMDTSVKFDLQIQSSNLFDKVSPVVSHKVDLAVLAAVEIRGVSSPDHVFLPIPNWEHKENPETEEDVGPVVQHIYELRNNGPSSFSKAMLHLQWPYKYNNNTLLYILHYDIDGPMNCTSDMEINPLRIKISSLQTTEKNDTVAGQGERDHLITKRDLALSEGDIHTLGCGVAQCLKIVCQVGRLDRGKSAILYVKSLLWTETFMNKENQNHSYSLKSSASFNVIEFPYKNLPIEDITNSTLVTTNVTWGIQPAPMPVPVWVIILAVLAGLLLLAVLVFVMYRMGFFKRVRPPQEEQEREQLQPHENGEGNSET
Sequence of alphaVbeta3 integrin (human) (P05106 27-788, chain 2 of 2, further chain): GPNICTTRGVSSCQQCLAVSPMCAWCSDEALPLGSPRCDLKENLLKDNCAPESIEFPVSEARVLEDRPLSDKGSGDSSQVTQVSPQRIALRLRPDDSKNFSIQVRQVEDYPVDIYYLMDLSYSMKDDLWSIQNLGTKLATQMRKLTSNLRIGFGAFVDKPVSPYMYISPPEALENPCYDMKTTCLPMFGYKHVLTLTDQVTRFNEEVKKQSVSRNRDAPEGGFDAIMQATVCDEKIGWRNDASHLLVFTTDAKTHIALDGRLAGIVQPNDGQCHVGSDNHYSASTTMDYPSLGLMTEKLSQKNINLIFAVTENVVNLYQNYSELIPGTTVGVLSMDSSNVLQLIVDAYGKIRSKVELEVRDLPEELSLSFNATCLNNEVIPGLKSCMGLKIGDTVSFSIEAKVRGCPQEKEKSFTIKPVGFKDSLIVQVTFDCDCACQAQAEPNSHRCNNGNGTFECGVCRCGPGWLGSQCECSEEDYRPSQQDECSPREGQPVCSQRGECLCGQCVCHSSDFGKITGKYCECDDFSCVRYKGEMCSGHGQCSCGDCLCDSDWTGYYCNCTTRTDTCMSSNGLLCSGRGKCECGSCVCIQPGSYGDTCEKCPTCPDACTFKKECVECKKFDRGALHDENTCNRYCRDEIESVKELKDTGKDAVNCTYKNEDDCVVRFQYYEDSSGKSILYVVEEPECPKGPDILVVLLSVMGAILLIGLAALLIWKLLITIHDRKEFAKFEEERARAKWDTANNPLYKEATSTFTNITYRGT

B1: c7E3 IgG (antibody, INN chains, looked up, V domains shown)
VH: EVQLQQSGTVLARPGASVKMSCEASGYTFTNYWMHWVKQRPGQGLEWIGAIYPGNSDTSYIQKFKGKAKLTAVTSTTSVYMELSSLTNEDSAVYYCTLYDGYYVFAYWGQGTLVTVSA
VL: EIVLTQSPVTLSVTPGDSVSLSCRASRDISNNLHWFQQTSHESPRLLIKYASQSMSGIPSRFSGSGSGTDFTLSINSVETEDFGMYFCQQTNSWPYTFGGGTKLEIK
modifications: IgG
The EC50 is the midpoint of the concentration-response curve. Consider B1, for which the EC50 amounted to 0.07 µg/mL.
